Measured values from publication PMC9207415.

Assay: SEC; TSK gel G3000SWXL, 100 mmol/L sodium phosphate with 100 mmol/L Na2SO4 (pH 6.8), isocratic, 0.4 ml/min, 25°C, UV at 280 nm; area percentages of monomer, oligomeric and truncated forms of the antibody solution (5 g/L in 10 mmol/L potassium phosphate pH 7.0)

Substance: NMIJ RM 6208a, AIST-MAB (humanized IgG1κ monoclonal antibody reference material)
- area percentage of the monomer peak: (93.7 ± 0.2) %
